Experimental data: the supplement of paper PMC10899765

Tests used:
Conditions in all cases: 20 nM; 72 h
[1] = test system: MCF10A; experiment: percent viability (nuclei count relative to siNT); higher = more viable cells
Method: (§1)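 After 72 h, cells were fixed and stained with Hoechst and anti-fibrillarin, and nucleoli per nucleus were counted with CellProfiler. Values are plate-adjusted percent effect for the one-nucleolus and 5+ nucleoli phenotypes, normalised to siNT (0%) and to the positive controls siNOL11 or siKIF11 (100%), as the mean of biological triplicates. Percent viability is the nuclei count relative to siNT.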

[2] = test system: MCF10A; experiment: 5+ nucleoli phenotype percent effect (relative to siNT 0% and siKIF11 100%); higher = more cells with five or more nucleoli
Method: as §1

[3] = test system: MCF10A; experiment: nucleolar rRNA biogenesis percent inhibition (5-EU; siNT 0%, siPOLR1A 100%); higher = stronger inhibition of nucleolar rRNA biogenesis
Method: (§2)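 Primary screen hits (microRNA mimics) were re-picked and rescreened for nucleolar number in MCF10A cells (hitpick validation; percent effect relative to the siNT and siNOL11/siKIF11 controls). A secondary screen measured nucleolar rRNA biogenesis inhibition: after 72 h of transfection at 20 nM, cells were labelled 1 h with 1 mM 5-EU and nucleolar 5-EU signal was quantified, normalised to siNT (0%) and siPOLR1A (100%). Means are over n=5 (MCF10A) or n=2 (RPE-1, HeLa) biological replicates.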

[4] = test system: MCF10A; experiment: one-nucleolus phenotype percent effect, hitpick validation (relative to siNT 0% and siNOL11 100%); higher = more cells with one nucleolus
Method: as §2

[5] = test system: MCF10A; experiment: 5+ nucleoli phenotype percent effect, hitpick validation (relative to siNT 0% and siKIF11 100%); higher = more cells with five or more nucleoli
Method: as §2

[6] = test system: MCF10A; experiment: one-nucleolus phenotype percent effect (relative to siNT 0% and siNOL11 100%); higher = more cells with one nucleolus (ribosome biogenesis inhibition)
Method: as §1

[7] = test system: HeLa; experiment: nucleolar rRNA biogenesis percent inhibition (5-EU; siNT 0%, siPOLR1A 100%); higher = stronger inhibition of nucleolar rRNA biogenesis
Method: as §2

[8] = test system: hTERT RPE-1; experiment: as above
Method: as §2

| Sequence | percent viability [1] [%] | 5+ nucleoli phenotype percent effect [2] [%] | nucleolar rRNA biogenesis percent inhibition [3] [%] | one-nucleolus phenotype percent effect [4] [%] | 5+ nucleoli phenotype percent effect [5] [%] | one-nucleolus phenotype percent effect [6] [%] | nucleolar rRNA biogenesis percent inhibition [7] [%] | nucleolar rRNA biogenesis percent inhibition [8] [%] |
| --- | --- | --- | --- | --- | --- | --- | --- | --- |
| AAAAGGCAUUGUGGUUUUUG [hsa-miR-548an] | 11.6 | -52.6 | 65.7 | 194 | -8.86 | 137 | – | – |
| AAAAGGCGGGAGAAGCCCCA [hsa-miR-4484] | 12 | -51.6 | 69.6 | 199 | -14.7 | 92.8 | – | – |
| AAAGGAGGAAAUAGGCAGGCCA [hsa-miR-3173-3p] | 17.5 | -35.7 | 86.5 | 84.3 | -0.0263 | 67.7 | 25.3 | 159 |
| AAAGGCAUAAAACCAAGACA [hsa-miR-3910] | 11.9 | -39.2 | 12.7 | 167 | -8.76 | 97 | – | – |
| AAGCAGCUGCCUCUGAGGC [hsa-miR-646] | 32.4 | -42.6 | 130 | 152 | -14.4 | 70.7 | – | – |
| AAGGAGAUGCUCAGGCAGAU [hsa-miR-6888-5p] | 31 | -54 | 50.6 | 173 | -11.7 | 86.2 | – | – |
| AAGGAGCUCACAGUCUAUUGAG [hsa-miR-28-5p] | 39 | -30.7 | 0.18 | 146 | -2.58 | 69.4 | 60.9 | 63.6 |
| AAGGAGCUUACAAUCUAGCUGGG [hsa-miR-708-5p] | 27.9 | -34.6 | -26.3 | 187 | 1.8 | 120 | 48.6 | 9.05 |
| ACCUUGGCUCUAGACUGCUUACU [hsa-miR-212-5p] | 27.9 | 164 | 118 | -36.9 | 91.8 | -30.9 | 95.9 | 114 |
| ACUCGGCGUGGCGUCGGUCGUG [hsa-miR-1307-3p] | 39.9 | -50.5 | 100 | 112 | -13.2 | 66.2 | 40.2 | 13.7 |
| ACUGGGCUUGGAGUCAGAAG [hsa-miR-378g] | 16.8 | -34.6 | 57.9 | 159 | -9.08 | 91.2 | – | – |
| ACUGGGGAGCAGAAGGAGAACC [hsa-miR-4667-5p] | 9.07 | -15.5 | 81.2 | 107 | 9.27 | 67.8 | – | – |
| AGAAAGGGUGGCAAUACCUCUU [hsa-miR-5681a] | 8.23 | -33.1 | 76.4 | 165 | -15.4 | 114 | – | – |
| AGAAGGCACUAUGAGAUUUAGA [hsa-miR-605-3p] | 43.9 | -49.9 | 65 | 154 | -15.9 | 66.4 | 23.1 | -22.8 |
| AGAGCAGAAGGAUGAGAU [hsa-miR-4468] | 16.5 | -43.6 | 102 | 109 | -14.8 | 66.8 | – | – |
| AGGAGCAGUGCCGGCCAAGGCGCC [hsa-miR-6081] | 22.9 | -52.9 | 57.3 | 152 | -16.9 | 81.7 | – | – |
| AGGAGCUAUCCACUCCAGGUGUCC [hsa-miR-6500-5p] | 19.2 | -33 | 61.3 | 153 | 5.46 | 70.9 | – | – |
| AGGUAUUGCCACCCUUUCUAGU [hsa-miR-5681b] | 12.7 | -35.5 | 66 | 133 | -3.11 | 90.7 | – | – |
| AGUGUGGCUUUCUUAGAGC [hsa-miR-644a] | 35 | -48.4 | 101 | 170 | -13.1 | 93.5 | – | – |
| CAAAGGUAUUUGUGGUUUUUG [hsa-miR-548m] | 39.4 | -40.8 | 4.11 | 130 | -10.9 | 68.6 | – | – |
| CAAUGGCACAAACUCAUUCUUGA [hsa-miR-5197-5p] | 22.7 | -38.9 | 16.5 | 65.4 | 20.5 | 71 | – | – |
| CACCAGGGCAGAGCAGGGCUGA [hsa-miR-6753-5p] | 15 | -40 | 91.2 | 141 | -17.4 | 68.1 | – | – |
| CAGCCUCUGCCCUUGGCCUCC [hsa-miR-6877-3p] | 28.9 | -44.7 | 114 | 153 | -16.2 | 69.1 | – | – |
| CCCCACCUCCUCUCUCCUCAG [hsa-miR-1224-3p] | 86.7 | 97.2 | 22.4 | -32.5 | 28.1 | -25.7 | – | – |
| CCGUCGCCGCCACCCGAGCCG [hsa-miR-1181] | 128 | 96.7 | 86.9 | -55.6 | 40.2 | -33.1 | – | – |
| CGCGCCGGGCCCGGGUU [hsa-miR-3195] | 19.4 | -31.1 | 51.6 | 196 | -15.6 | 82.1 | – | – |
| CUAGGGGGUUUGCCCUUG [hsa-miR-4278] | 13.5 | -35.5 | 45.6 | 151 | -14.3 | 67.1 | – | – |

| Sequence | percent viability [1] [%] | 5+ nucleoli phenotype percent effect [2] [%] | nucleolar rRNA biogenesis percent inhibition [3] [%] | one-nucleolus phenotype percent effect [4] [%] | 5+ nucleoli phenotype percent effect [5] [%] | one-nucleolus phenotype percent effect [6] [%] | nucleolar rRNA biogenesis percent inhibition [7] [%] | nucleolar rRNA biogenesis percent inhibition [8] [%] |
| --- | --- | --- | --- | --- | --- | --- | --- | --- |
| CUCGGCGCGGGGCGCGGGCUCC [hsa-miR-1469] | 30 | -35.5 | 96.7 | 158 | -13.8 | 74.3 | – | – |
| CUCUCCCUCUUUACCCACUAG [hsa-miR-6867-3p] | 61.8 | 133 | 71.1 | -40.4 | 49.1 | -35 | – | – |
| CUCUCCUCCCGGCUUC [hsa-miR-4279] | 14.1 | -34.9 | 26.8 | 188 | -6.3 | 87.9 | – | – |
| CUGGCGGAGCCCAUUCCAUGCCA [hsa-miR-4730] | 18.2 | -43.2 | 91.1 | 230 | -12.7 | 118 | – | – |
| CUGGCGGCUGUGUCUUCACAG [hsa-miR-6770-3p] | 18.4 | -40.2 | -8.82 | -1.66 | 1.2 | 110 | – | – |
| GAGCAAUGUAGGUAGACUGUUU [hsa-miR-3908] | 19.8 | -34.4 | 7.34 | 166 | -5.96 | 89.1 | – | – |
| GAGCAGGCGAGGCUGGGCUGAA [hsa-miR-4690-5p] | 11.1 | -41.1 | 101 | 176 | -12.8 | 70.8 | – | – |
| GAGGGCAUGCGCACUUUGUCC [hsa-miR-4761-3p] | 20 | -23.9 | 76 | 86.5 | 14.2 | 85.1 | – | – |
| GAGGGCGGGUGGAGGAGGA [hsa-miR-3141] | 20.1 | -29.5 | 51.1 | 129 | -4.23 | 72.7 | – | – |
| GGCGACAAAACGAGACCCUGUC [hsa-miR-1273c] | 17.4 | -32.6 | 31.6 | 205 | -8.2 | 106 | – | – |
| GGCUCCUCCUCUCAGGAUGUG [hsa-miR-4268] | 41.5 | 82.4 | 133 | -21.2 | 51.9 | -15.6 | – | – |
| GGCUGGGUGCUCUUGUGCAGU [hsa-miR-5589-5p] | 17.4 | -4.52 | 70 | 92.2 | 21.5 | 71 | – | – |
| GUGUGUGGAAAUGCUUCUGC [hsa-miR-147a] | 18.3 | -15.3 | 61.8 | 103 | 9.08 | 95.9 | – | – |
| UAGGAGCUCAACAGAUGCCUGUU [hsa-miR-3139] | 18.8 | -23.5 | 5.86 | 181 | -8.78 | 84.1 | – | – |
| UCAUAGCCCUGUACAAUGCUGCU [hsa-miR-103b] | 46.2 | -32.5 | 47.6 | 144 | -15 | 72.9 | – | – |
| UCUCCCUUGAGGGCACUUU [hsa-miR-4287] | 66 | 200 | 82.1 | -44.9 | 70 | -43.1 | – | – |
| UCUGCAGGGUUUGCUUUGAG [hsa-miR-1205] | 20.5 | -53.7 | 15.8 | 166 | -13.7 | 96.8 | – | – |
| UGAAUGGUAAAGCGAUGUCACA [hsa-miR-4790-3p] | 32.2 | -42.5 | 105 | 78.8 | -2.28 | 71.6 | – | – |
| UGGAGUCCAGGAAUCUGCAUUUU [hsa-miR-1289] | 20 | -51.8 | 68.1 | 130 | -9.57 | 78.3 | – | – |
| UGGCAAGGAAAGAAGAGGAUCA [hsa-miR-6809-5p] | 9.15 | -45.7 | 69.8 | 207 | -2.51 | 115 | – | – |
| UGGUCUGCAAAGAGAUGACUGU [hsa-miR-4527] | 12.3 | -39.4 | 67.3 | 151 | -1.79 | 104 | – | – |
| UGUGUGGAUCCUGGAGGAGGCA [hsa-miR-3911] | 12.9 | -47 | 53.8 | 129 | -10.6 | 70.3 | – | – |
| UUCUCCCACUACCAGGCUCCCA [hsa-miR-4713-5p] | 32.9 | 95.9 | 82.4 | -22.9 | 43 | -12.1 | – | – |
| UUGCACUUGUCUCAGUGA [hsa-miR-4325] | 15.7 | -30.4 | 104 | 84.2 | 3.45 | 70.8 | – | – |
| UUUGCAGUAACAGGUGUGAGCA [hsa-miR-6516-5p] | 23.8 | -40.6 | 48.6 | 142 | -19.1 | 80.3 | – | – |
| UUUGGGACUGAUCUUGAUGUCU [hsa-miR-3913-5p] | 69.2 | 132 | 84.5 | -50.6 | 61 | -47.3 | – | – |
